{"source": "paper PMC2259325", "key": {"[1]": {"biological_target": "GST-Fyn SH3 domain fusion protein (wild type) (UniProt P06241)", "sequence (P06241 82-143)": "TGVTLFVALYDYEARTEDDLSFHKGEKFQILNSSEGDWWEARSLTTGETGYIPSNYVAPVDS", "assay": "SPR; Biacore 3000, HBS buffer (10 mM Hepes-NaOH pH 7.4, 150 mM NaCl, 0.005% Tween-20), 25°C; GST-SH3 captured on CM5 chip via amine-coupled anti-GST antibody; NS5A 3 μM - 100 nM flowed over, in triplicate; 1:1 Langmuir fit"}, "[2]": {"biological_target": "Hck SH3 (Homo sapiens) (UniProt P08631)", "sequence (P08631 75-141)": "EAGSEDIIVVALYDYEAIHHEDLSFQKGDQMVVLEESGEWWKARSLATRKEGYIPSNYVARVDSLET", "details": "cited from earlier work"}, "[3]": {"biological_target": "Hck SH3 (Homo sapiens) (UniProt P08631)", "details": "cited from earlier work", "remark": "listed apart in the source"}}, "note": "Like-named read-outs stand apart in the source and are kept apart here."}
{"substance": "NS5A(Δ250), N-terminally truncated hepatitis C virus non-structural 5A protein (domain or fragment)", "values": [{"measurement": "koff", "setting": "[1]", "result": 0.00494, "unit": "s⁻¹"}, {"measurement": "kon", "setting": "[1]", "result": 9050, "unit": "M⁻¹ s⁻¹"}]}
{"substance": "Nef (from UniProt P04324)", "values": [{"measurement": "Kd", "setting": "[2]", "result": 0.25, "unit": "µM"}]}
{"substance": "Nef PxxPxR-containing peptide PxxPxR peptide (from UniProt P04324)", "values": [{"measurement": "Kd", "setting": "[3]", "result": 91, "unit": "µM"}]}
